Data: paper PMC5379070

What was measured:
Experiment in all cases: native gel or EMSA; blue-native PAGE of the trimer-size SEC fractions (Superdex 200 Increase, TBS) after antibody affinity purification
[1] = target: 327c SOSIP.664 trimer (HIV-1 isolate 327c (subtype C))
[2] = target: SIV trimer SIVcpzMT145 SOSIP.664 (simian immunodeficiency virus SIVcpzMT145)
[3] = target: B41 SOSIP.664 trimer (HIV-1 isolate B41 (subtype B))
[4] = target: CRF02_AG_250 SOSIP.664 trimer (HIV-1 isolate CRF02_AG_250 (subtype AG))

327c SOSIP.664 trimer (complex)
stoichiometry N [1]: 3

SIV trimer SIVcpzMT145 SOSIP.664 (complex)
stoichiometry N [2]: 3

B41 SOSIP.664 trimer (complex)
stoichiometry N [3]: 3

CRF02_AG_250 SOSIP.664 trimer (complex)
stoichiometry N [4]: 3
